Data on one molecule can be found in CN101357942A.

Assay [1] addresses 天然Stx2 (natural Shiga toxin II of enterohaemorrhagic E. coli O157:H7) (肠出血性大肠杆菌(EHEC) O157:H7) (UniProt P09385).
Assay [2] shares this target. Briefly: cell-based or functional assay.

UniProt P09385, sequence (P09385 23-319, chain 1 of 2): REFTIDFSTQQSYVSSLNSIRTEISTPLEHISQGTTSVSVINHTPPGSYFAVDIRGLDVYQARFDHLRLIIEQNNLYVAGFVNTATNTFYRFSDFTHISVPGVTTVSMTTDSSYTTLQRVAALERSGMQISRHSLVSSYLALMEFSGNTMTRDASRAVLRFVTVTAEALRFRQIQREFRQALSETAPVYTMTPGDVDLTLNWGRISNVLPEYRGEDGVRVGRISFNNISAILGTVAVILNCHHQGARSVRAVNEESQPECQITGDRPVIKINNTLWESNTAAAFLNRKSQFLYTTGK
UniProt P09385, sequence (P09386 20-89, chain 2 of 2, further chain): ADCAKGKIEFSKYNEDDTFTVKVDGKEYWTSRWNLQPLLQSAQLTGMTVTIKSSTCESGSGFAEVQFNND

B1: 1F2Fab抗体 (recombinant Fab of 1F2, expressed from Pcomb3X-1F2Fab in E. coli XL-blue) (Fab, V domains shown)
VH: SGGGLVQPGGSLKLSCAASGFTFSVYGMSWVRQTPDKRLELVATINNNGGSTYYPDSVKGRFTISRDNAKNTLYLQMSSLKSEDTAMYYCASIPLFGNYWGQGTSVTVSS
VL: MTQTPLSLPVSLGDQASISCRSSQSIVHSNGNTYLEWYLQKPGQSPKFLIYKVSRFSGVPDRFSGSGSGTDFTLKISRVEAEDLGVYYCFQGSHVPWTFGGGTKLEIKR
In the case of B1, the affinity relative to parental mAb 1F2 in assay [1] amounted to 85%. The same molecule came in with a 对Stx2细胞毒作用的抑制率 (Vero cells, MTT) in assay [2] of 83%.
